From the Immune Epitope Database (IEDB)
Each block holds one sequence with its values, some of them ahead of it.

Assays:
[1] = molecular target: HLA-B*35:01; experiment: IEDB peptide-MHC binding, purified MHC/direct/fluorescence; filed as Kd, often an IC50 or EC50 that approximates it; ≥ and ≤ were set here for values at or beyond the usual limits of such assays
[2] = molecular target: HLA-B*46:01; experiment: IEDB peptide-MHC binding, purified MHC/competitive/fluorescence; filed as Kd, often an IC50 or EC50 that approximates it; ≥ and ≤ were set here for values at or beyond the usual limits of such assays
[3] = molecular target: HLA-A*02:19; experiment: IEDB peptide-MHC binding, purified MHC/direct/fluorescence; filed as Kd, often an IC50 or EC50 that approximates it; ≥ and ≤ were set here for values at or beyond the usual limits of such assays
[4] = molecular target: HLA-A*24:03; experiment: as above
[5] = molecular target: HLA-A*02:16; experiment: as above
[6] = molecular target: HLA-A*23:01; experiment: as above
[7] = molecular target: HLA-A*02:11; experiment: as above
[8] = molecular target: HLA-A*02:12; experiment: as above
[9] = molecular target: HLA-A*03:01; experiment: as above
[10] = molecular target: HLA-A*68:02; experiment: as above
[11] = molecular target: HLA-A*02:03; experiment: as above
[12] = molecular target: HLA-A*29:02; experiment: as above
[13] = molecular target: HLA-B*18:01; experiment: IEDB peptide-MHC binding, purified MHC/competitive/fluorescence; filed as Kd, often an IC50 or EC50 that approximates it; ≥ and ≤ were set here for values at or beyond the usual limits of such assays
[14] = molecular target: HLA-B*39:01; experiment: as above
[15] = molecular target: HLA-B*15:17; experiment: as above
[16] = molecular target: HLA-A*69:01; experiment: as above
[17] = molecular target: HLA-B*27:03; experiment: as above; conditions: source organism: Zaire ebolavirus
[18] = molecular target: HLA-B*51:01; experiment: as above
[19] = molecular target: HLA-A*26:01; experiment: as above
[20] = molecular target: HLA-B*15:01; experiment: as above
[21] = molecular target: HLA-A*02:01; experiment: as above
[22] = molecular target: HLA-B*57:01; experiment: as above
[23] = molecular target: HLA-A*11:01; experiment: IEDB peptide-MHC binding, purified MHC/competitive/fluorescence; ≥ and ≤ were set here for values at or beyond the usual limits of such assays; conditions: source organism: Zaire ebolavirus
[24] = molecular target: HLA-A*03:01; experiment: as above; conditions: source organism: Zaire ebolavirus
[25] = molecular target: HLA-A*02:01; experiment: as above; conditions: source organism: Zaire ebolavirus
[26] = molecular target: HLA-B*27:05; experiment: IEDB peptide-MHC binding, purified MHC/direct/fluorescence; filed as Kd, often an IC50 or EC50 that approximates it; ≥ and ≤ were set here for values at or beyond the usual limits of such assays
[27] = molecular target: HLA-A*01:01; experiment: as above
[28] = molecular target: HLA-A*69:01; experiment: as above
[29] = molecular target: HLA-A*11:01; experiment: as above
[30] = molecular target: HLA-B*44:02; experiment: as above
[31] = molecular target: HLA-B*40:01; experiment: as above
[32] = molecular target: HLA-B*08:01; experiment: as above
[33] = molecular target: HLA-A*26:01; experiment: as above
[34] = molecular target: HLA-B*58:01; experiment: as above
[35] = molecular target: HLA-B*15:01; experiment: as above
[36] = molecular target: HLA-A*31:01; experiment: as above
[37] = molecular target: HLA-A*02:01; experiment: as above
[38] = molecular target: HLA-B*07:02; experiment: as above
[39] = molecular target: HLA-B*35:01; experiment: IEDB peptide-MHC binding, purified MHC/competitive/fluorescence; filed as Kd, often an IC50 or EC50 that approximates it; ≥ and ≤ were set here for values at or beyond the usual limits of such assays; conditions: source organism: Influenza A virus (A/duck/Hong Kong/3096/99(H6N2))
[40] = molecular target: HLA-B*08:01; experiment: as above; conditions: source organism: Influenza A virus (A/duck/Hong Kong/3096/99(H6N2))
[41] = molecular target: HLA-A*26:02; experiment: as above; conditions: source organism: Influenza A virus (A/duck/Hong Kong/3096/99(H6N2))
[42] = molecular target: HLA-A*02:06; experiment: as above; conditions: source organism: Influenza A virus (A/duck/Hong Kong/3096/99(H6N2))
[43] = molecular target: HLA-A*68:02; experiment: as above; conditions: source organism: Influenza A virus (A/duck/Hong Kong/3096/99(H6N2))
[44] = source organism: Zaire ebolavirus
[45] = source organism: Escherichia coli O157:H7
[46] = source organism: Influenza A virus(A/swine/Shandong/fZC/2003(H9N2))
[47] = source organism: Influenza A virus (A/tiger/Thailand/CU-T4/04(H5N1))
[48] = source organism: Influenza A virus (A/duck/Hong Kong/3096/99(H6N2))
[49] = source organism: Coxiella burnetii

Sequence: FAAWIQQTY
Kd ([1]; source organism: Vibrio parahaemolyticus RIMD 2210633): 0.01 µM
Kd ([2]; source organism: Vibrio parahaemolyticus AN-5034): 0.125 µM

Sequence: FLILPQAKK
Kd [3, 44]: ≥ 20 µM
Kd [4, 44]: ≥ 20 µM
Kd [5, 44]: ≥ 20 µM
Kd [6, 44]: ≥ 20 µM
Kd [7, 44]: ≥ 20 µM
Kd [8, 44]: ≥ 20 µM
Kd [9, 44]: ≥ 20 µM
Kd [10, 44]: ≥ 20 µM
Kd [11, 44]: ≥ 20 µM
Kd [12, 44]: ≥ 20 µM
Kd [13, 44]: ≥ 20 µM
Kd [14, 44]: ≥ 20 µM
Kd [15, 44]: ≥ 20 µM
Kd [16, 44]: ≥ 20 µM
Kd [17]: ≥ 20 µM
Kd [18, 44]: ≥ 20 µM
Kd [2, 44]: ≥ 20 µM
Kd [19, 44]: ≥ 20 µM
Kd [20, 44]: ≥ 20 µM
Kd [21, 44]: ≥ 20 µM
Kd [22, 44]: ≥ 20 µM
IC50 [23]: 1.67 µM
IC50 [24]: 4.4 µM
IC50 [25]: 64.7 µM

Sequence: GRFQEALKK
Kd ([3]; source organism: Choclo virus): ≥ 20 µM
Kd ([4]; source organism: Choclo virus): ≥ 20 µM
Kd ([26]; source organism: Orthohantavirus andesense): 0.0717 µM
Kd ([5]; source organism: Choclo virus): ≥ 20 µM
Kd ([6]; source organism: Choclo virus): ≥ 20 µM
Kd ([7]; source organism: Choclo virus): ≥ 20 µM
Kd ([8]; source organism: Choclo virus): ≥ 20 µM
Kd ([9]; source organism: Choclo virus): ≥ 20 µM
Kd ([10]; source organism: Choclo virus): ≥ 20 µM
Kd ([11]; source organism: Choclo virus): ≥ 20 µM
Kd ([12]; source organism: Choclo virus): ≥ 20 µM
Kd ([13]; source organism: Choclo virus): ≥ 20 µM
Kd ([14]; source organism: Choclo virus): ≥ 20 µM
Kd ([15]; source organism: Choclo virus): ≥ 20 µM
Kd ([16]; source organism: Choclo virus): ≥ 20 µM
Kd ([18]; source organism: Choclo virus): ≥ 20 µM
Kd ([2]; source organism: Choclo virus): ≥ 20 µM
Kd ([19]; source organism: Choclo virus): ≥ 20 µM
Kd ([20]; source organism: Choclo virus): ≥ 20 µM
Kd ([21]; source organism: Choclo virus): ≥ 20 µM
Kd ([22]; source organism: Choclo virus): ≥ 20 µM

Kd [1, 45]: ≥ 10 µM
Kd [26, 45]: 3.25 µM
Kd [27, 45]: ≥ 20 µM
Kd [28, 45]: ≥ 20 µM
Kd [29, 45]: ≥ 20 µM
Kd [30, 45]: ≥ 20 µM
Kd [31, 45]: ≥ 20 µM
Kd [32, 45]: ≥ 20 µM
Kd [33, 45]: ≥ 20 µM
Kd [9, 45]: ≥ 20 µM
Kd [34, 45]: ≥ 20 µM
Kd [35, 45]: ≥ 20 µM
Kd [36, 45]: ≥ 20 µM
Kd [37, 45]: ≥ 20 µM
Sequence: IRNPPMVVF

Sequence: TMLYNKMEF
Kd [3, 46]: ≥ 5 µM
Kd [4, 47]: 0.0114 µM
Kd [26, 47]: ≥ 20 µM
Kd [27, 47]: ≥ 20 µM
Kd [38, 47]: ≥ 20 µM
Kd [29, 47]: ≥ 20 µM
Kd [6, 47]: 0.047 µM
Kd [7, 46]: 0.157 µM
Kd [8, 46]: 3.47 µM
Kd [33, 46]: ≥ 20 µM
Kd [9, 47]: ≥ 20 µM
Kd [34, 47]: ≥ 20 µM
Kd ([35]; source organism: Influenza A virus (A/Puerto Rico/8/34/Mount Sinai(H1N1))): 0.118 µM
Kd [36, 47]: ≥ 20 µM
Kd [37, 47]: 0.604 µM
Kd [11, 46]: ≥ 20 µM
Kd [39]: 1.26 µM
Kd [14, 48]: ≥ 20 µM
Kd [15, 48]: 0.311 µM
Kd [40]: 3 µM
Kd [2, 48]: ≥ 20 µM
Kd [41]: ≥ 20 µM
Kd [42]: 0.312 µM
Kd [22, 48]: ≥ 20 µM
Kd [43]: 4.44 µM

Sequence: WAPEGDIRL
Kd [1, 49]: 0.899 µM
Kd [4, 49]: ≥ 20 µM
Kd [26, 49]: ≥ 20 µM
Kd [27, 49]: ≥ 20 µM
Kd [28, 49]: ≥ 20 µM
Kd [38, 49]: 4.29 µM
Kd [29, 49]: ≥ 20 µM
Kd [30, 49]: ≥ 20 µM
Kd [31, 49]: ≥ 20 µM
Kd [32, 49]: ≥ 20 µM
Kd [33, 49]: ≥ 20 µM
Kd [9, 49]: ≥ 20 µM
Kd [34, 49]: ≥ 20 µM
Kd [35, 49]: ≥ 20 µM
Kd [36, 49]: ≥ 20 µM
Kd [37, 49]: 0.33 µM
